The results in this text go back to patent publication US8969060B2, “Modified glucose dehydrogenase” (Ikeda Food Research Co., Ltd., priority 2011, dated 2015).

Sequences and labels used below:
B1: N287D + D343E + K494E: modified GLD: SEQ ID NO: 1 with substitutions N287D, D343E, K494E (protein, listed as Aspergillus terreus)
chain: MLGKLSFLSALSLAVAAPLSNSTSAKYDYIVIGGGTSGLAVANRLSEDPNVNVLILEAGGSVWNNPNVTNVDGYGLAFGSDIDWQYQSVNQPYGGNLSQVLRAGKALGGTSTINGMAYTRAEDVQIDAWETIGNTGWTWKNLFPYYRKSENFTVPTKSQTSLGASYEAGAHGHEGPLDVAFTQIESNNLTTYLNRTFQGMGLPWTEDVNGGKMRGFNLYPSTVNLEEYVREDAARAYYWPYKSRPNLHVLLNTFANRIVWDGEAHDGHITASGVEITSRNGTVRVIDAEKEVIVSAGALKSPAILELSGIGNPSVLDKHNIPVKVNLPTVGENLQDQVNSHMEASGNTSISGTKAVSYPDVYDVFGDEAESVAKQIRANLKQYAADTAKANGNIMKAADLERLFEVQYDLIFKGRVPIAEVLNYPGSATSVFAEFWALLPFARGSVHIGSSNPAEFPVINPNYFMLDWDAKSYVAVAKYIRRSFESYPLSSIVEESTPGYDVIPRNASEQSWKEWVFDKNYRSNFHPVGTAAMMPREIGGVVDERLNVYGTTNVRVVDASVLPFQVCGHLVSTLYAVAERAADLIKADAGRR
modifications: SIGNAL (1)..(19)
B2: D343N: modified GLD: SEQ ID NO: 1 with substitution D343N (protein, listed as Aspergillus terreus)
chain: B1 chain with D287N, E343N, E494K
modifications: SIGNAL (1)..(19)
B3: D343E + L562H: modified GLD: SEQ ID NO: 1 with substitutions D343E, L562H (protein, listed as Aspergillus terreus)
chain: B1 chain with D287N, E494K, L562H
modifications: SIGNAL (1)..(19)
B4: D343N + S490C: modified GLD: SEQ ID NO: 1 with substitutions D343N, S490C (protein, listed as Aspergillus terreus)
chain: B1 chain with D287N, E343N, S490C, E494K
modifications: SIGNAL (1)..(19)
B5: V431M: modified GLD: SEQ ID NO: 1 with substitution V431M (protein, listed as Aspergillus terreus)
chain: B1 chain with D287N, E343D, V431M, E494K
modifications: SIGNAL (1)..(19)
B6: L250V + S340G + D399N: modified GLD: SEQ ID NO: 1 with substitutions L250V, S340G, D399N (protein, listed as Aspergillus terreus)
chain: B1 chain with L250V, D287N, S340G, E343D, D399N, E494K
modifications: SIGNAL (1)..(19)
B7: H341L: modified GLD: SEQ ID NO: 1 with substitution H341L (protein, listed as Aspergillus terreus)
chain: B1 chain with D287N, H341L, E343D, E494K
modifications: SIGNAL (1)..(19)
B8: H341R + G499S: modified GLD: SEQ ID NO: 1 with substitutions H341R, G499S (protein, listed as Aspergillus terreus)
chain: B1 chain with D287N, H341R, E343D, E494K, G499S
modifications: SIGNAL (1)..(19)
B9: G352E: modified GLD: SEQ ID NO: 1 with substitution G352E (protein, listed as Aspergillus terreus)
chain: B1 chain with D287N, E343D, G352E, E494K
modifications: SIGNAL (1)..(19)
B10: S272T + A298V + A369T: modified GLD: SEQ ID NO: 1 with substitutions S272T, A298V, A369T (protein, listed as Aspergillus terreus)
chain: B1 chain with S272T, D287N, A298V, E343D, A369T, E494K
modifications: SIGNAL (1)..(19)
B11: G426S + A578V: modified GLD: SEQ ID NO: 1 with substitutions G426S, A578V (protein, listed as Aspergillus terreus)
chain: B1 chain with D287N, E343D, G426S, E494K, A578V
modifications: SIGNAL (1)..(19)
B12: M342L + K354N: modified GLD: SEQ ID NO: 1 with substitutions M342L, K354N (protein, listed as Aspergillus terreus)
chain: B1 chain with D287N, M342L, E343D, K354N, E494K
modifications: SIGNAL (1)..(19)
B13: V338 + Q382H: modified GLD: SEQ ID NO: 1 with substitutions at V338 and Q382H (protein, listed as Aspergillus terreus)
chain: B1 chain with D287N, V338M, E343D, Q382H, E494K
modifications: SIGNAL (1)..(19)
B14: H341C: modified GLD: SEQ ID NO: 1 with substitution H341C (protein, listed as Aspergillus terreus)
chain: B1 chain with D287N, H341C, E343D, E494K
modifications: SIGNAL (1)..(19)
B15: S340G: modified GLD: SEQ ID NO: 1 with substitution S340G (protein, listed as Aspergillus terreus)
chain: B1 chain with D287N, S340G, E343D, E494K
modifications: SIGNAL (1)..(19)
B16: S340W: modified GLD: SEQ ID NO: 1 with substitution S340W (protein, listed as Aspergillus terreus)
chain: B1 chain with D287N, S340W, E343D, E494K
modifications: SIGNAL (1)..(19)
B17: H341A: modified GLD: SEQ ID NO: 1 with substitution H341A (protein, listed as Aspergillus terreus)
chain: B1 chain with D287N, H341A, E343D, E494K
modifications: SIGNAL (1)..(19)
B18: S340N: modified GLD: SEQ ID NO: 1 with substitution S340N (protein, listed as Aspergillus terreus)
chain: B1 chain with D287N, S340N, E343D, E494K
modifications: SIGNAL (1)..(19)
B19: H341E: modified GLD: SEQ ID NO: 1 with substitution H341E (protein, listed as Aspergillus terreus)
chain: B1 chain with D287N, H341E, E343D, E494K
modifications: SIGNAL (1)..(19)
B20: H341D: modified GLD: SEQ ID NO: 1 with substitution H341D (protein, listed as Aspergillus terreus)
chain: B1 chain with D287N, H341D, E343D, E494K
modifications: SIGNAL (1)..(19)
B21: H341F: modified GLD: SEQ ID NO: 1 with substitution H341F (protein, listed as Aspergillus terreus)
chain: B1 chain with D287N, H341F, E343D, E494K
modifications: SIGNAL (1)..(19)
B22: S340V: modified GLD: SEQ ID NO: 1 with substitution S340V (protein, listed as Aspergillus terreus)
chain: B1 chain with D287N, S340V, E343D, E494K
modifications: SIGNAL (1)..(19)

Where a chain is given by its changes, count along the chain named. Names may count otherwise. “And” between values parts separate entries of the source, which are not always exact repeats. Identical values can stand only once.

The first data set in a line: Relative enzymatic activity of GLD (DCIP/1-m-PMS, plate reader, yeast culture supernatant) with 1,10-phenanthroline present. The note with it: random-mutation mutants, sample value with inhibitor at 1 mM / blank value, inhibitor not named in Table 1. Format: biochemical. The procedure: (§1) The susceptibility defined in the present specification is evaluated in terms of a relative activity that is determined in a system wherein the inhibitor coexists or not. The relative activity is derived from a relative value (%) of an enzymatic activity (a sample value) obtained with the addition of the inhibitor in the determination of the enzymatic activity described in the present specification as compared with an enzymatic activity (a blank value) as “100%” obtained without the addition of the inhibitor in the same determination. Thus, the higher the relative activity is, the less the susceptibility to the inhibitor is (or the more the susceptibility to the inhibitor is reduced), vice versa.
(§2) The enzymatic activity is determined in the following manner in Examples 3 and 6 wherein a plate reader (Japan Molecular Device Corporation, SpectraMax Plus384) is used. Thus, culture supernatant that had been diluted in advance with an appropriate magnification is added to a 96-well microplate with an amount of 100 μl per well. A reagent for the determination of the enzymatic activity comprising phosphate buffer (pH 7.0), 1.0 M D-glucose, 3 mM DCIP, 3 mM 1-m-PMS and methanol with a volume ratio of 0.1:1:0.14:0.2:0.06 is added to the 96-well microplate with an amount of 100 μl per well, and a change in the absorbance of DCIP at 600 nm (ΔABS/min) is then determined. The enzymatic activity can be calculated by conversion in proportion to a change in the absorbance of an enzyme solution for which the enzymatic activity has already been known by the above-mentioned activity determination procedure using the spectrophotometer.
(§3) In the following examples, a value of the enzymatic activity determined by the spectrometer or plate reader using the above reagent composition is considered as a blank value. On the other hand, a sample value is determined using a methanol solution comprising the inhibitor such as 1,10-phenanthroline or proflavin hydrochloride at a final concentration of 1 mM instead of the methanol. Enzymatic activity (unit/mL)=(−ΔABS/16.3)×3.0/0.05×(Dilution ratio of enzyme) [Equation 1]
Into each well of a 96-well microplate (manufactured by Nunc, Inc.), a YPD medium containing 125 μL of 1.0% (w/v) yeast extract (manufactured by BD), 2.0% (w/v) tryptone (manufactured by BD), 2.0% (w/v) glucose (manufactured by Wako Pure Chemical Industries, Ltd.) was dispensed, and the transformant colonies obtained in Example 2 were inoculated thereinto one by one.
After shaking culture at 30° C. and 1,000 rpm for 24 hours, the culture mixture was centrifuged and the supernatant was collected.
According to the above-mentioned method for the determination of enzymatic activity, a blank value and a sample value were determined using a plate reader, and the relative activity (%) was obtained by dividing the sample value by the blank value.
For the molecule B1, the “Relative Activity” value amounted to 52.2%.
On to B2, for which the “Relative Activity” value is 65.2%.
B3: the “Relative Activity” value is listed as 51.8%.
Consider B4, for which the “Relative Activity” value is 61.8% and 71.1%.
Consider B5, for which the “Relative Activity” value came out at 44.8%.
For the molecule B6, the “Relative Activity” value is recorded as 43.4%.
Still for that read-out and setting: the result for B7 reads 69.7%; that for B8, 71.9%.
Same read-out and setting: the result for B9 reads 70.4%; that for B10, 68.6%; that for B11, 65.7%.
The same measure, in the same setting: the figure for B12 is 69.8%; for B13 it is 60.0%.

The data set is the same for the next values; noted with them: site-specific mutants, inhibitor final concentration 1 mM.
Turning to B14, the “Relative Activity [%] 1,10-Phenanthroline” value was found to be 95.4%.
Still for that read-out and setting: the figure for B15 is 54.6%.
On the same count and under the same terms, the result for B16 reads 97.7%.
Consider B17, for which the “Relative Activity [%] 1,10-Phenanthroline” value is 95.1%.
For the molecule B18, the “Relative Activity [%] 1,10-Phenanthroline” value worked out at 82.0%.
Consider B19, for which the “Relative Activity [%] 1,10-Phenanthroline” value is on record as 88.4%.
Same read-out and setting: the result for B7 reads 92.2%; that for B20, 90.0%.
Turning to B9, the “Relative Activity [%] 1,10-Phenanthroline” value was 91.7%.
With B21, the “Relative Activity [%] 1,10-Phenanthroline” value was 97.1%.
In the case of B22, the “Relative Activity [%] 1,10-Phenanthroline” value is listed as 84.2%.

A short description of a further data set: Relative enzymatic activity of GLD (DCIP/1-m-PMS, plate reader, yeast culture supernatant) with proflavin hydrochloride present. Format: biochemical. The note with it: site-specific mutants, inhibitor final concentration 1 mM. Here is the method:
as §1, §2, §3
For the molecule B14, the “Relative Activity [%] Proflavin hydrochloride” value was found to be 67.7%.
Still for that read-out and setting: the result for B15 reads 49.5%; that for B16, 75.7%.
Consider B17, for which the “Relative Activity [%] Proflavin hydrochloride” value is 75.8%.
On to B18, for which the “Relative Activity [%] Proflavin hydrochloride” value stood at 49.9%.
On the same count and under the same terms, the result for B19 reads 25.2%; that for B7, 66.9%; that for B20, 64.5%.
Consider B9, for which the “Relative Activity [%] Proflavin hydrochloride” value turned out to be 36.3%.
Take B21: the “Relative Activity [%] Proflavin hydrochloride” value turned out to be 67.5%.
Still for that read-out and setting: the figure for B22 is 54.9%.
